What was measured:
rFVIII [1] = molecular target: T1, rFVIII (Homo sapiens, UniProt P00451); assay: confirmatory binding assay in filtration plate format using 14C-rFVIII; details: for 0.5M CaCl2 % total / 2% acetic acid % total / 2% acetic acid dpm / 0.5M CaCl2 dpm: 5 mg beads; for 0.5M CaCl2 dpm: 5° C.; for beads % total / beads dpm: remaining on beads after washes
Procedure: Confirmatory binding assays were performed in a filtration plate format using individual peptide sequences synthesized directly onto the TOYOPEARL AF amino 650 M resin, at a final substitution density of 0.1 mmole/g resin. A slurry of each individual peptide sequence was prepared using deionized water. A 100 μL volume of beads (corresponding to 5 mg) was loaded into each well of the filtration plate (MULTISCREEN Assay System, Millipore, Bedford, Mass.), in triplicate for each peptide sequence. Beads were washed with 20% ethanol and incubated overnight with equilibration buffer (20 mM imidazole, 10 mM
CaCl2, 0.105 M NaCl, pH 6.9). A 100 μL aliquot of ^14 C-rFVIII diluted in neat PPF to a final concentration of 20-30 nM was loaded into each well and incubated for 1 hour at 5° C. Filtrate (unbound ^14 C-rFVIII) was collected into a microtiter plate and transferred to liquid scintillation vials for dpm counting. Beads were washed sequentially with: 100 μL of equilibration buffer for 15 minutes, 200 μL of 0.5 M CaCl2 (in equilibration buffer), 200 μL of 1.0 M CaCl2 (in equilibration buffer), and 200 uL of 2% by volume glacial acetic acid in water, for 1 hour each at 5° C. Scintillation counting on the unbound ^14 C-rFVIII (plus equilibration buffer wash), salt and acid washes, as well as on the beads was then performed and the overall mass balance calculated.
Beads presenting the appropriate peptide sequence on the surface were placed in the filtration plate wells and incubated sequentially with equilibration buffer, ^14 C-rFVIII in PPF, equilibration buffer, 0.5 M CaCl2 wash, 1.0 M CaCl2 wash and 2% acetic acid wash. After each incubation, filtrate was collected in microtiter plates, and dpm counted on each
In Table 3, the ^14 C-rFVIII was loaded at 20 nM (in PPF) and the radiolabeling yield was at 3.0×10^15 dpm/mole. In Table 4, the ^14 C-rFVIII was loaded at 30 nM (in PPF) and the radiolabeling yield was at 5.0×10^15 dpm/mole.

rFVIII [2] = molecular target: T1, rFVIII; assay: column format binding assay, rFVIII mass per fraction by sandwich capture ELISA for the light chain; details: for Flow through ng: 10,000 ng rFVIII in 1:10 PPF injected, 5° C.; for ELISA results % total: Table 9, 0.5M CaCl2 fraction
Procedure: (§1) Immunoassay on rFVIII using a sandwich capture ELISA for the light chain and activity assay using a chromogenic substrate (COATEST Factor VIII kit from diaPharma, Franklin, Ohio) were performed on a BIOMEK® automated liquid handling system from Beckman Instruments (Brea, Calif.). The monoclonal antibody for rFVIII light chain (known as C7F7), the ELISA assay standard (lot A70K019), and the control for the activity assay (lot A70A001 @ 140 IU/mL) were from the Bayer Corporation (Berkeley, Calif.). The standard for the activity assay was at 11.2 IU/mL (Bayer, Clayton, N.C.), calibrated against the MEGA 1 standard, which is a working standard used by American manufacturers for measuring factor VIII activity (21).
(§2) Additional confirmatory binding assay and performance of the discovered binding peptides in terms of total rFVIII and activity recovery was performed in a column chromatographic format on a microbore HPLC. The resins were packed into 0.4×5 cm columns (Thomson, Springfield, Va.) and tested on the MICHROM HPLC system (Michrom BioResources, Auburn, Calif.). The elution program for the trials utilized the following method. The column was pre-equilibrated with equilibration buffer (as above). A 1 mL aliquot of 1:10 PPF followed by 1 mL of rFVIII (10,000 ng) in 1:10 PPF were injected and allowed sufficient time to flow through the column using equilibration buffer. The column was then washed with step elutions of 0.5 M and 1.0 M CaCl2 in equilibration buffer. The column was exposed to equilibration buffer. Remaining protein was eluted with 2% by volume glacial acetic acid in water. Columns were kept at 5° C. during the chromatographic runs. For each 1 mL injection (equilibration buffer, 1:10 PPF and 10,000 ng rFVIII in 1:10 PPF), the chromatographic cycle was run for 45 minutes (injection, flow through, 0.5 M CaCl2, 1.0 M CaCl2, equilibration buffer, 2% acetic acid, equilibration buffer).
(§3) A Gilson FC204 fraction collector at the HPLC outlet collected individual eluates for further analysis. Each collection tube had 100 μL hSA added to it to stabilize the rFVIII. Fractions collected from the 2% acetic acid eluates were neutralized with 2 M Tris, pH 10.5 to bring the pH to neutrality. The fractions were analyzed for total protein by the integration of the absorbance at 280 nm, for rFVIII by immunoassay (sandwich capture ELISA), and for rFVIII activity by a chromogenic substrate assay.
Tables 5 and 6 present the results from the additional confirmatory binding assays using the column format. The chromatography method was run by injecting the samples at a flow rate of 865 μL/min (413 cm/hr). In order to provide a 10 minute residence time of sample in the column the flow was decreased to 17 μL/min (10 cm/hr) upon injection.
Following the incubation, the flow was set at 865 μL/min (413 cm/hr) for the step clutions of 0.5 M CaCl2, 1.0 M CaCl2, and 2% acetic acid. Results are expressed in terms of the total mass of rFVIII in each fraction, as determined by the sandwich capture ELISA assay for the rFVIII light chain. […] A control using a non-binding peptide sequence (IGF) is also shown for comparison--in this case, 95% of the rFVIII loaded to the column was collected in the flow through fraction. Additional controls with no

rFVIII [3] = molecular target: T1, rFVIII; assay: rFVIII activity recovery from peptide columns by chromogenic substrate assay (COATEST); type: biochemical; details: for 0.5M CaCl2 % total: activity recovery; for Flow through IU: rFVIII activity in fraction; for Activity results % total: Table 9, 0.5M CaCl2 fraction
Procedure: as §1, §2, §3
Tables 7 and 8 list the sequences for which activity recovery was determined by a chromogenic substrate assay (COASTEST kit, diaPharma, Franklin, Ohio). Chromatographc conditions are the same as described above for the results from Tables 5 and 6. It can be

[4] = Table 3, 14C-rFVIII 20 nM in PPF
[5] = Table 3, 14C-rFVIII 20 nM in PPF, 3.0 × 10^15 DPM/mole
[6] = Table 4, 14C-rFVIII 30 nM in PPF
[7] = Table 4, 14C-rFVIII 30 nM in PPF, 5.0 × 10^15 dpm/mole

T1 sequence (P00451 20-2351): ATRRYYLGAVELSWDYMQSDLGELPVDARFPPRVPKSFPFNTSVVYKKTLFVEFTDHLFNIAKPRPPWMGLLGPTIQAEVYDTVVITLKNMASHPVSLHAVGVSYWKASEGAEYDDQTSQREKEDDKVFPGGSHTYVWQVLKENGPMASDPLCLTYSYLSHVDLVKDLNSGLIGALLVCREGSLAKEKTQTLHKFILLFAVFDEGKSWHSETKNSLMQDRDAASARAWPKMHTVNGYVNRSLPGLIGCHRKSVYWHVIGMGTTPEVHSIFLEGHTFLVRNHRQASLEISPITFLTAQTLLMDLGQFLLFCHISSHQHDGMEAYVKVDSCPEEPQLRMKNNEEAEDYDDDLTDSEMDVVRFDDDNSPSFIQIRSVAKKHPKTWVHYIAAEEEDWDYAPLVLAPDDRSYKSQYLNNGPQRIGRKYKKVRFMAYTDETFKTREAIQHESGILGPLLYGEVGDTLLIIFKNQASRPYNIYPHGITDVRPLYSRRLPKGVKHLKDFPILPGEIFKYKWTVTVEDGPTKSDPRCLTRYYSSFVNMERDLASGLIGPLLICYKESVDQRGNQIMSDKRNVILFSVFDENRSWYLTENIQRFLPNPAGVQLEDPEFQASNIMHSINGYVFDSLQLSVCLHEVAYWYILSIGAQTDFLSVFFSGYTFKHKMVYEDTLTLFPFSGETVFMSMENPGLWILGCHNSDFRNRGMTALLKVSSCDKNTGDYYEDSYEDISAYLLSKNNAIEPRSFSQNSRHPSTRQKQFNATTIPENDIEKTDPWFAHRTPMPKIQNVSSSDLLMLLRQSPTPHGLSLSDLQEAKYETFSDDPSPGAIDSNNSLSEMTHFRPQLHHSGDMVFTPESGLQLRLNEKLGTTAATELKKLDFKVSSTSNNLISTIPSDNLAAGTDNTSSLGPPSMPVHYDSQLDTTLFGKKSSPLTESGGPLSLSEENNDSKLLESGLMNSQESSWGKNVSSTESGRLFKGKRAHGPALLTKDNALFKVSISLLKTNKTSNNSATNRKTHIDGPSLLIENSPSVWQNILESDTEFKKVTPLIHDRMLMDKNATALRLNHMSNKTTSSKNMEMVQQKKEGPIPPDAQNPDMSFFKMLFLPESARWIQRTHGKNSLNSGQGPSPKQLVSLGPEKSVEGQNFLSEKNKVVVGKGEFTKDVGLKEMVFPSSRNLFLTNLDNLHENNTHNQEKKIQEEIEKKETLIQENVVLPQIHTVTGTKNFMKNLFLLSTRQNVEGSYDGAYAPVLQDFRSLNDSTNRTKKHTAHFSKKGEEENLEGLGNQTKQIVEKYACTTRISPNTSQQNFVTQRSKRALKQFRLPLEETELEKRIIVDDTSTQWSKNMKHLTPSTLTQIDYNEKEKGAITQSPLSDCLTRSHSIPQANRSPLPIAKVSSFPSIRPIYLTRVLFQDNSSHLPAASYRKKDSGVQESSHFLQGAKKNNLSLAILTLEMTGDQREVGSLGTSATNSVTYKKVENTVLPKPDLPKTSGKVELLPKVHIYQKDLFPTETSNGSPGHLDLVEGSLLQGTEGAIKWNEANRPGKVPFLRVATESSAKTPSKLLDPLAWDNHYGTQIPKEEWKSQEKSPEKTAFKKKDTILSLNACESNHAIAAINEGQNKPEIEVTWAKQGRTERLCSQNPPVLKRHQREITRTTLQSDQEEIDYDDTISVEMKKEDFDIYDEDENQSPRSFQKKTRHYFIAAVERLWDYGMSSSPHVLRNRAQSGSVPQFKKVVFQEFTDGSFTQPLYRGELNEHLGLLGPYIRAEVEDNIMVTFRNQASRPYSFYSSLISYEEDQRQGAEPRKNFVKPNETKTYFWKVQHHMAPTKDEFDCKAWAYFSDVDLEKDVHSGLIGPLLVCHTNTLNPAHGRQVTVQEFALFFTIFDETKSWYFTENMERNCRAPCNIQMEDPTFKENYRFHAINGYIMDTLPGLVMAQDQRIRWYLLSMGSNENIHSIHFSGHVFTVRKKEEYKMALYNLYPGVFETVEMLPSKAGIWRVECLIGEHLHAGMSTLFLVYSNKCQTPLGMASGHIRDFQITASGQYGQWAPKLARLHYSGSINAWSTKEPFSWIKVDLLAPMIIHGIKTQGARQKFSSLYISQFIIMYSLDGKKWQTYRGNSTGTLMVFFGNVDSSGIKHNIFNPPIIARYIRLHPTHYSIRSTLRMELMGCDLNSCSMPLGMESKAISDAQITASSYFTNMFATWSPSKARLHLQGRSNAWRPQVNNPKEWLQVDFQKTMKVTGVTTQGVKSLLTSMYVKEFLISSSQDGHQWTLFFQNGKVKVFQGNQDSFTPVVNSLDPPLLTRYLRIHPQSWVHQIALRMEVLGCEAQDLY
T1 sequence (P00451 1668-2351 limits assumed): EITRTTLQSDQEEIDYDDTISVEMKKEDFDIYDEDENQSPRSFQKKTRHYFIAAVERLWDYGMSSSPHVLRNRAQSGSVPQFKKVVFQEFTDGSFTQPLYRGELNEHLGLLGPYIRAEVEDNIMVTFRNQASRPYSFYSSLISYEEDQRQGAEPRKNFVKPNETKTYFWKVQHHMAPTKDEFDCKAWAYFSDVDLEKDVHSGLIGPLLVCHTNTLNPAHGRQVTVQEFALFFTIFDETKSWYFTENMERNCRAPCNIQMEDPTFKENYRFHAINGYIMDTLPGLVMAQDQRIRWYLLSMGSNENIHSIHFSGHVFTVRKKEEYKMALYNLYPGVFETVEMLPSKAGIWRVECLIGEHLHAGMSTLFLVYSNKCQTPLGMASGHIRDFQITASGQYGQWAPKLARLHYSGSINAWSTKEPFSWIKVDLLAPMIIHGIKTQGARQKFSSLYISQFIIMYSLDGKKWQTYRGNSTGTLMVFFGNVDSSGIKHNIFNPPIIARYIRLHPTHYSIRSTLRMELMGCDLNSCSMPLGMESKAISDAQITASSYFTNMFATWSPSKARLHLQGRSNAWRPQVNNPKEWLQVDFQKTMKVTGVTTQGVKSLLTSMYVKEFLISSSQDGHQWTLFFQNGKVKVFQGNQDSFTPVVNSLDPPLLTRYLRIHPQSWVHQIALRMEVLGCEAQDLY

6 (HYWFYK) [compound 6]
Total dpm (rFVIII [1]; Table 3, 14C-rFVIII 20 nM): 3881 dpm
0.5M CaCl2 % total (rFVIII [1]; [4]): 83%
2% acetic acid % total (rFVIII [1]; [4]): 12%
2% acetic acid dpm (rFVIII [1]; [4]): 458 dpm
0.5M CaCl2 dpm (rFVIII [1]; [5]): 3236 dpm
beads % total (rFVIII [1]; Table 3, 14C-rFVIII 20 nM): 5%
beads dpm (rFVIII [1]; Table 3, 14C-rFVIII 20 nM): 187 dpm
0.5M CaCl2 ng (rFVIII [2]; Table 5): 5658 ng
0.5M CaCl2 % total (rFVIII [2]; Table 5): 90%
2% acetic acid % total (rFVIII [2]; Table 5): 3%
2% acetic acid ng (rFVIII [2]; Table 5): 160 ng
Flow through % total (rFVIII [2]; Table 5): 2%
Total ng (rFVIII [2]; Table 5): 6320 ng
Flow through ng (rFVIII [2]; Table 5): 105 ng
ELISA results % total (rFVIII [2]): 90%
0.5M CaCl2 IU (rFVIII [3]; Table 7): 59.4 IU
2% acetic acid % total (rFVIII [3]; Table 7): 1%
2% acetic acid IU (rFVIII [3]; Table 7): 0.5 IU
Flow through % total (rFVIII [3]; Table 7): 0%
Total IU (rFVIII [3]; Table 7): 68.7 IU
0.5M CaCl2 % total (rFVIII [3]; Table 7): 86%
Flow through IU (rFVIII [3]; Table 7): 0.0 IU
Activity results % total (rFVIII [3]): 86%

7 (IRFYSE) [compound 7]
Total dpm (rFVIII [1]; Table 3, 14C-rFVIII 20 nM): 3764 dpm
0.5M CaCl2 % total (rFVIII [1]; [4]): 85%
2% acetic acid % total (rFVIII [1]; [4]): 11%
2% acetic acid dpm (rFVIII [1]; [4]): 415 dpm
0.5M CaCl2 dpm (rFVIII [1]; [5]): 3184 dpm
beads % total (rFVIII [1]; Table 3, 14C-rFVIII 20 nM): 4%
beads dpm (rFVIII [1]; Table 3, 14C-rFVIII 20 nM): 165 dpm
0.5M CaCl2 ng (rFVIII [2]; Table 5): 5836 ng
0.5M CaCl2 % total (rFVIII [2]; Table 5): 94%
2% acetic acid % total (rFVIII [2]; Table 5): 1%
2% acetic acid ng (rFVIII [2]; Table 5): 77 ng
Flow through % total (rFVIII [2]; Table 5): 4%
Total ng (rFVIII [2]; Table 5): 6225 ng
Flow through ng (rFVIII [2]; Table 5): 228 ng
ELISA results % total (rFVIII [2]): 94%
0.5M CaCl2 IU (rFVIII [3]; Table 7): 40.6 IU
2% acetic acid % total (rFVIII [3]; Table 7): 1%
2% acetic acid IU (rFVIII [3]; Table 7): 0.4 IU
Flow through % total (rFVIII [3]; Table 7): 0%
Total IU (rFVIII [3]; Table 7): 42.5 IU
0.5M CaCl2 % total (rFVIII [3]; Table 7): 96%
Flow through IU (rFVIII [3]; Table 7): 0.0 IU
Activity results % total (rFVIII [3]): 96%

9 (FALPGR) [compound 9]
Total dpm (rFVIII [1]; Table 4, 14C-rFVIII 30 nM): 3658 dpm
0.5M CaCl2 % total (rFVIII [1]; [6]): 93%
2% acetic acid % total (rFVIII [1]; [6]): 5%
2% acetic acid dpm (rFVIII [1]; [6]): 176 dpm
0.5M CaCl2 dpm (rFVIII [1]; [7]): 3414 dpm
beads % total (rFVIII [1]; Table 4, 14C-rFVIII 30 nM): 2%
beads dpm (rFVIII [1]; Table 4, 14C-rFVIII 30 nM): 68 dpm
0.5M CaCl2 ng (rFVIII [2]; Table 6): 7154 ng
0.5M CaCl2 % total (rFVIII [2]; Table 6): 97%
2% acetic acid % total (rFVIII [2]; Table 6): 2%
2% acetic acid ng (rFVIII [2]; Table 6): 181 ng
Flow through % total (rFVIII [2]; Table 6): 0%
Total ng (rFVIII [2]; Table 6): 7403 ng
Flow through ng (rFVIII [2]; Table 6): 0 ng
ELISA results % total (rFVIII [2]): 97%
0.5M CaCl2 IU (rFVIII [3]; Table 8): 68.9 IU
2% acetic acid % total (rFVIII [3]; Table 8): 0%
2% acetic acid IU (rFVIII [3]; Table 8): 0.1 IU
Flow through % total (rFVIII [3]; Table 8): 0%
Total IU (rFVIII [3]; Table 8): 70.2 IU
0.5M CaCl2 % total (rFVIII [3]; Table 8): 98%
Flow through IU (rFVIII [3]; Table 8): 0.0 IU
Activity results % total (rFVIII [3]): 98%

10 (AFVRSL) [compound 10]
Total dpm (rFVIII [1]; Table 4, 14C-rFVIII 30 nM): 3764 dpm
0.5M CaCl2 % total (rFVIII [1]; [6]): 93%
2% acetic acid % total (rFVIII [1]; [6]): 5%
2% acetic acid dpm (rFVIII [1]; [6]): 188 dpm
0.5M CaCl2 dpm (rFVIII [1]; [7]): 3491 dpm
beads % total (rFVIII [1]; Table 4, 14C-rFVIII 30 nM): 2%
beads dpm (rFVIII [1]; Table 4, 14C-rFVIII 30 nM): 85 dpm
0.5M CaCl2 ng (rFVIII [2]; Table 6): 11023 ng
0.5M CaCl2 % total (rFVIII [2]; Table 6): 98%
2% acetic acid % total (rFVIII [2]; Table 6): 1%
2% acetic acid ng (rFVIII [2]; Table 6): 135 ng
Flow through % total (rFVIII [2]; Table 6): 0%
Total ng (rFVIII [2]; Table 6): 11272 ng
Flow through ng (rFVIII [2]; Table 6): 0 ng
ELISA results % total (rFVIII [2]): 98%
0.5M CaCl2 IU (rFVIII [3]; Table 8): 53.1 IU
2% acetic acid % total (rFVIII [3]; Table 8): 0%
2% acetic acid IU (rFVIII [3]; Table 8): 0.1 IU
Flow through % total (rFVIII [3]; Table 8): 0%
Total IU (rFVIII [3]; Table 8): 54.3 IU
0.5M CaCl2 % total (rFVIII [3]; Table 8): 98%
Flow through IU (rFVIII [3]; Table 8): 0.0 IU
Activity results % total (rFVIII [3]): 98%

Source: patent US6191256A, “Recombinant factor VIII binding peptides” (Bayer Corporation, priority 1998, dated 2001)
